Test results published in patent US20260062488A1 (AbbVie / Abbott, published 2026).

What was measured:
[1] = molecular target: T1, cynomolgus FcγRI extracellular domain protein (cynomolgus monkey); assay: SPR (Biacore), N = 1
T1 construct: extracellular domain; also called Cyno FcγRI

[2] = molecular target: T2, cynomolgus FcγRIIa extracellular domain protein (cynomolgus monkey); assay: SPR (Biacore), N = 1
T2 construct: extracellular domain; also called Cyno FcγRIIa

[3] = molecular target: T3, cynomolgus FcγRIIb extracellular domain protein (cynomolgus monkey); assay: SPR (Biacore), N = 1
T3 construct: extracellular domain; also called Cyno FcγRIIb

[4] = molecular target: T4, cynomolgus FcγRIII extracellular domain protein (cynomolgus monkey, UniProt Q8SPW2 17-208); assay: SPR (Biacore), N = 1
T4 construct: extracellular domain; also called Cyno FcγRIII

[5] = molecular target: T5, cynomolgus α4β7 integrin (cynomolgus monkey); assay: FACS, cyno CD4+ naïve
T5 construct: whole, on cells; On CHOK1-cα4β7 cells or cynomolgus blood lymphocytes; also called cα4β7; cyno α4β7

[6] = molecular target: T5, cynomolgus α4β7 integrin; assay: FACS, cyno CD4+ total
[7] = molecular target: T5, cynomolgus α4β7 integrin; assay: FACS, cyno CD8+ total
[8] = molecular target: T5, cynomolgus α4β7 integrin; assay: FACS, cyno CD8+ naïve
[9] = molecular target: T5, cynomolgus α4β7 integrin; assay: FACS, cyno CD8+ total; remark: listed apart in the source
[10] = molecular target: T5, cynomolgus α4β7 integrin; assay: FACS, cyno CD8+ memory
[11] = molecular target: T6, rabbit α4β7 integrin (rabbit); assay: FACS, rabbit lymphocytes
T6 construct: whole, on cells; On rabbit PBMCs

[12] = molecular target: T5, cynomolgus α4β7 integrin; assay: FACS, cynomolgus lymphocytes
[13] = molecular target: T5, cynomolgus α4β7 integrin; assay: FACS, cyno CD4+ naïve T cells
[14] = molecular target: T5, cynomolgus α4β7 integrin; assay: FACS, cyno total CD4+ T cells
[15] = molecular target: T5, cynomolgus α4β7 integrin; assay: binding to cyno CD4+ Tm cells
[16] = molecular target: T5, cynomolgus α4β7 integrin; assay: FACS, cyno CD4+ memory T cells
[17] = molecular target: T5, cynomolgus α4β7 integrin; assay: binding, cynomolgus CD4+ memory T cells, summary table
[18] = molecular target: T5, cynomolgus α4β7 integrin; assay: binding, cynomolgus CD8+ memory T cells, summary table
[19] = molecular target: T7, human α4β1 integrin (human, UniProt P05556 21-798); assay: FACS on recombinant cells expressing human α4β1; N=1
T7 construct: whole, on cells; also called hα4β1

[20] = molecular target: T8, human FcγRIIc on CHO-K1 cells (human, UniProt P31995 43-323); assay: flow cytometry on CHO-K1 cells expressing the receptor (curve FcgRIIC), monomeric antibody, F(ab')2 anti-human IgG AF647; N=1
T8 construct: whole, on cells
T8 sequence (looked up): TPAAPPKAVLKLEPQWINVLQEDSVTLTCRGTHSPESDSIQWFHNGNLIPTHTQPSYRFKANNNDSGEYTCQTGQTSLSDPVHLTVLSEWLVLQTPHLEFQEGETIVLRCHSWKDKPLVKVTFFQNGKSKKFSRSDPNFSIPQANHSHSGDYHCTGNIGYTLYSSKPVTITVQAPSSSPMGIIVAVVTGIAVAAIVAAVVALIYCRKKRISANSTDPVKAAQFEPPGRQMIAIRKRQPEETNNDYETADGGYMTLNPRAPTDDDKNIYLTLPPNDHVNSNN

[21] = molecular target: T9, FcgRIIIB SH (human, UniProt O75015); assay: flow cytometry on CHO-K1 cells expressing the receptor (curve FcgRIIIB SH), monomeric antibody, F(ab')2 anti-human IgG AF647; N=1
T9 construct: cell surface, on engineered CHO-K1 cells; the list of molecules has only an FcγRIIIb on CHO-K1 cells without the allotype; also called human FcγRIIIb (SH) on CHO-K1 cells

[22] = molecular target: T10, FcgRIIIB NA1 (human, UniProt O75015); assay: flow cytometry on CHO-K1 cells expressing the receptor (curve FcgRIIIB NA1), monomeric antibody, F(ab')2 anti-human IgG AF647; N=1
T10 construct: cell surface, on engineered CHO-K1 cells; the list of molecules has only an FcγRIIIb on CHO-K1 cells without the allotype; also called human FcγRIIIb (NA1) on CHO-K1 cells

[23] = molecular target: T11, FcgRIIIB NA2 (human, UniProt O75015); assay: flow cytometry on CHO-K1 cells expressing the receptor (curve FcgRIIIB NA2), monomeric antibody, F(ab')2 anti-human IgG AF647; N=1
T11 construct: cell surface, on engineered CHO-K1 cells; the list of molecules has only an FcγRIIIb on CHO-K1 cells without the allotype; also called human FcγRIIIb (NA2) on CHO-K1 cells

[24] = molecular target: T12, human FcγRIIIa (V176) on CHO-K1 cells (human, UniProt P08637 17-254); assay: flow cytometry on CHO-K1 cells expressing the receptor (curve FcgRIIIA V176), monomeric antibody, F(ab')2 anti-human IgG AF647; N=1
T12 construct: whole, on cells; also called V158
T12 sequence (P08637 17-254 F176V limits assumed): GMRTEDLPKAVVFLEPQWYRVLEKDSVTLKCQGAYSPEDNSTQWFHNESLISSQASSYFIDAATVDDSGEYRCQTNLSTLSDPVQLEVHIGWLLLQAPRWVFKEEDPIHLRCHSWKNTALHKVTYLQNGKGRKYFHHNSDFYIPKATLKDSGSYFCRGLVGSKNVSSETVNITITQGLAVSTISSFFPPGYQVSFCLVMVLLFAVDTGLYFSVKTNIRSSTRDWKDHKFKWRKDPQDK

T10 sequence (O75015 other isoform, or with tags, fused parts or gaps limits assumed): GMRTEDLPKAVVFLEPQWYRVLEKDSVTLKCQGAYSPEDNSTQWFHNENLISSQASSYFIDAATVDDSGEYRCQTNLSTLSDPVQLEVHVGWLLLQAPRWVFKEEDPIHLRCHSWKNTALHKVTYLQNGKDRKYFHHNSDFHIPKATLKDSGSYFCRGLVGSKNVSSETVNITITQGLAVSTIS
T4 sequence (Q8SPW2 17-208): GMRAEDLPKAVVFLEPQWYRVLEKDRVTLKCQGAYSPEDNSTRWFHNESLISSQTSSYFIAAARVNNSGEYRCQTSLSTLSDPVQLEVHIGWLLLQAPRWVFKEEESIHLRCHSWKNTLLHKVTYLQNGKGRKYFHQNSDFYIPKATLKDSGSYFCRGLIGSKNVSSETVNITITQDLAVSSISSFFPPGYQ
T9 sequence (O75015 17-200 N65S/A78D limits assumed): as the sequence (O75015 other isoform, or with tags, fused parts or gaps limits assumed) above, with R20S, N49S, A62D, D66N, V90I counted along it
T11 sequence (O75015 17-200 N65S limits assumed): as the sequence (O75015 other isoform, or with tags, fused parts or gaps limits assumed) above, with R20S, N49S, D66N, V90I counted along it

B1: Ab-h1.9d-WT (antibody, human IgG1, kappa)
heavy: not shown
light: DIQMTQSPSSLSASVGDRVTITCHASQDISDNIGWLQQKPGKSFKLLIYHGTNLEDGVPSRFSGSGSGTDYTLTISSLQPEDFATYYCVQYAQFPWTFGGGTKVEIKRTVAAPSVFIFPPSDEQLKSGTASVVCLLNNFYPREAKVQWKVDNALQSGNSQESVTEQDSKDSTYSLSSTLTLSKADYEKHKVYACEVTHQGLSSPVTKSFNRGEC
notes: IgG1/kappa with D356E and L358M (EU); also called Anti-human α4β7 (AC-166667) hu IgG1/k WT mAb
B1 was tested. Which Kd [1] did it give?
Its Kd is 1.4 nM.

And the Kd [2]?
The Kd was 8200 nM.

What about the Kd [3] of the same binder?
Its Kd is 7100 nM.

And the Kd [4]?
The Kd was 160 nM.

And the EC50 [5]?
Its EC50 is 0.045 nM.

And the EC50 [6]?
Its EC50 is 0.03 nM.

What about the EC50 [7] of the same binder?
The EC50 was 0.035 nM.

What about the EC50 [8] of the same binder?
The EC50 was 0.042 nM.

And the EC50 [9]?
Its EC50 is 0.035 nM.

And the EC50 [10]?
The EC50 was 0.036 nM.

And the EC50 [11]?
The EC50 was 0.089 nM.

What about the EC50 [12] of the same binder?
Its EC50 is 0.062 nM.

What about the EC50 [13] of the same binder?
The EC50 was 0.045 nM.

What about the EC50 [14] of the same binder?
The EC50 was 0.03 nM.

What about the EC50 [15] of the same binder?
The EC50 was 0.01 nM.

And the EC50 [16]?
Its EC50 is 0.01 nM.

What about the EC50 [17] of the same binder?
Its EC50 is 0.01 nM.

What about the EC50 [18] of the same binder?
Its EC50 is 0.036 nM.

Does B1 bind [19]?
Result: no binding (tested: about 70 (axis without unit))

Does B1 bind [20]?
Result: binds

Does B1 bind [21]?
Result: binds

Does B1 bind [22]?
Result: binds

Does B1 bind [23]?
Result: binds

Does B1 bind [24]?
Result: binds
